This is an account of results in patent publication US20030027764A1.

What all share (assay): cell-based or functional assay
Assay [1] addresses Bee venom (Apis melifera) PLA2 (Apis mellifera) (UniProt P00630).
Assay [2] concerns the target daboiatoxin, the major PLA2 toxin of Daboia russelli siamensis venom (Daboia russelli siamensis).
Assay [3] has as its target Taipoxin (Oxyuranus scutellatus PLA2) (Oxyuranus scutellatus) (UniProt P00614).

Chain of Bee venom (Apis melifera) PLA2 (Apis mellifera) (P00630 34-167): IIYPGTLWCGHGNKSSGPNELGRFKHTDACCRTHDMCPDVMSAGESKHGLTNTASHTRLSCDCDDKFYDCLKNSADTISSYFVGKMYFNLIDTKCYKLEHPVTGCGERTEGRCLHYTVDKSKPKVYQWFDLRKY
Chain of recombinant Python Antitoxic Factor (PAF), later renamed Phospholipase Inhibitor from Python (PIP), (Q9I8P7 20-201): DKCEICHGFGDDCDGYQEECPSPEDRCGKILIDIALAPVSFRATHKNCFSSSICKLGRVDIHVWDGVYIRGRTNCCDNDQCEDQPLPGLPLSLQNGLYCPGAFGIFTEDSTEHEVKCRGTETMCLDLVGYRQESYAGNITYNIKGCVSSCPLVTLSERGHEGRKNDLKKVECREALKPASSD
Chain of Taipoxin (Oxyuranus scutellatus PLA2) (Oxyuranus scutellatus) (P00614 whole entry, chain 1 of 3): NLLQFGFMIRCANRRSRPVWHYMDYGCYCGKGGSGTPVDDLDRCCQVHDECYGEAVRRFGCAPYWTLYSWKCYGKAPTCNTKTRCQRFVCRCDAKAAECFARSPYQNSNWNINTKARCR
Chain of Taipoxin (Oxyuranus scutellatus PLA2) (Oxyuranus scutellatus) (P00615 28-145, chain 2 of 3, further chain): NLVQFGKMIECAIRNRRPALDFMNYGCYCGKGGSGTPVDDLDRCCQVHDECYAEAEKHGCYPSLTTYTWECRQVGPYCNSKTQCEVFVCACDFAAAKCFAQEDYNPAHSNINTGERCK
Chain of Taipoxin (Oxyuranus scutellatus PLA2) (Oxyuranus scutellatus) (P00616 20-152, chain 3 of 3, further chain): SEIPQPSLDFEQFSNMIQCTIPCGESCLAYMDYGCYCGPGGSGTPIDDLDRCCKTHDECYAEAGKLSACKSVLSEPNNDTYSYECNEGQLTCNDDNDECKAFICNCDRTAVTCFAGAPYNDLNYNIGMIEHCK

For anti-inflammatory peptide-2 from Sigma, the % Inhibition of paw oedema; Bee venom PLA2 (1 µg) + 100 µg AIP-2 in assay [1] was determined as 33.6%. In addition, the % Inhibition of paw oedema; DbTx (1 µg) + 100 µg AIP-2 in assay [2] worked out at 35.3%.
On to “recombinant Python Antitoxic Factor (PAF), later renamed Phospholipase Inhibitor from Python (PIP), (from UniProt Q9I8P7 20-201)”, for which the % Neutralisation in assay [3] was determined as 50%. Also, in assay [1], the % Inhibition of paw oedema; Bee venom PLA2 (1 µg) + 50 µg PIP was 39.9% and the % Inhibition of paw oedema; Bee venom PLA2 (1 µg) + 100 µg PIP worked out at 78.1%. For the same substance, in assay [2], the % Inhibition of paw oedema; DbTx (1 µg) + 50 µg PIP is 89.2% and the % Inhibition of paw oedema; DbTx (1 µg) + 100 µg PIP is 92.2%.
